Measurements: publication PMC8460140, “Identification of BiP as a CB1 Receptor-Interacting Protein That Fine-Tunes Cannabinoid Signaling in the Mouse Brain” (The Journal of Neuroscience, 2021)

Biological target: T1, His6-tagged BiP-IR (amino acids 497-654), recombinant (UniProt P11021 497-654)
T1 construct: BiP (GRP78, Hspa5), amino acids 497-654; pBH4 vector; also called unlabeled BiP-IR
T1 sequence (looked up): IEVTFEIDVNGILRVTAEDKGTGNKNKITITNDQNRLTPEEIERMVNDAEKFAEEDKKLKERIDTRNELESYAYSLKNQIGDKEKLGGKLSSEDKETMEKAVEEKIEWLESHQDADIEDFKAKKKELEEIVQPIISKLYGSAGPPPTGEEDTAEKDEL
Experiment: fluorescence polarisation; saturation binding: constant 100 nM 5-IAF-CB1R-CTD, increasing amounts of unlabeled BiP or BiP-IR
Conditions: both partners purified

binding result: binds
B1: His6-tagged CB1R-CTD (amino acids 400-472), labeled with 5-IAF (domain or fragment, UniProt P21554 400-472, looked up)
chain: RSKDLRHAFRSMFPSCEGTAQPLDNSMGDSDCLHKHANNAASVHRAAESCIKSTVKIAKVTMSVSTDTSAEAL
modifications: labeled with 5-(iodoacetamido)fluorescein (5-IAF); labeled residue not stated
notes: pBH4 vector; also called 5-IAF-CB1R-CTD; 5-IAF-labeled CB1R-CTD
